Tests used:
[1] = target: T1, 人源性Prdx1重组蛋白 (recombinant peroxiredoxin 1 protein bought from Abclone) (human, UniProt Q06830 1-199, limits assumed); assay: ELISA on recombinant human Prdx1
T1 construct: Bought recombinant protein; also called 重组prdx1蛋白; 重组Prdx1
T1 sequence (looked up): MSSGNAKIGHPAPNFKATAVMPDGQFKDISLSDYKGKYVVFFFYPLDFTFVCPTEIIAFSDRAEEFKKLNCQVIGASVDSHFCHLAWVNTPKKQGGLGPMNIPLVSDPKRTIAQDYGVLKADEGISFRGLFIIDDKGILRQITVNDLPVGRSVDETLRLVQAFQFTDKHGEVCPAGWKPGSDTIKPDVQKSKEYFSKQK

[2] = target: T2, 小鼠Prdx1蛋白 (endogenous mouse Prdx1 in liver, lung, kidney tissue and primary macrophages) (mouse, UniProt P35700 2-199); assay: Western blot on mouse liver, lung, kidney, primary macrophages
T2 construct: Endogenous protein, denatured on Western blot; also called 鼠源性Prdx1蛋白; 小鼠的Prdx1蛋白
T2 sequence (looked up): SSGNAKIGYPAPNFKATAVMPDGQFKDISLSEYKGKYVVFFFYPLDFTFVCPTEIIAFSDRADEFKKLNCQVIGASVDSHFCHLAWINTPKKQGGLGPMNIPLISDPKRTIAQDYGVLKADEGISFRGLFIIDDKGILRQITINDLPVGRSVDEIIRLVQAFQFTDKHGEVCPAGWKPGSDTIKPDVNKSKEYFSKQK

binding result [1]: binds | binding result [2]: binds
B1: 抗Prdx1蛋白的单克隆中和抗体 (mouse monoclonal anti-human Prdx1 neutralizing antibody, Example 4) (antibody, V domains shown)
VH: QVQLQQSGPELMKPGASVKISCKATGYTFSNSWIEWVKQRPGHGLEWIGEILPGSGDTDYNEKFKGKATITADTSSNTAYMQLSSLTSEDSAVYYCASPYGDYFFANWGLGTLVTVSA
VL: DIVITQDELSNPVTSGESVSISCRSSKSLLYKDGKTYLNWFLQRPGQSPQLLIYLMSTRAAGVSDRFSGSGSGTDFTLEISRVKAEDVGVYYCQQLVEYPYTFGGGTKLEIK
notes: Mouse (BALB/c) hybridoma IgG purified from ascites on protein G; also called Prdx1单克隆抗体; Prdx1单克隆中和抗体

From patent publication CN117003877A (XIANGYA HOSPITAL CENTRAL SOUTH UNIV, dated 2023)
